Assay [1] concerns the target Norwalk virus protease (NVpro) (Norwalk virus (norovirus GI/1)) (UniProt Q83883).
In assay [2] the target is MD145 virus protease (MD145pro) (MD145 virus (norovirus GII/4)).

From PMC3259199 come the findings set out here.

Chain of UniProt Q83883 (Q83883 1101-1281): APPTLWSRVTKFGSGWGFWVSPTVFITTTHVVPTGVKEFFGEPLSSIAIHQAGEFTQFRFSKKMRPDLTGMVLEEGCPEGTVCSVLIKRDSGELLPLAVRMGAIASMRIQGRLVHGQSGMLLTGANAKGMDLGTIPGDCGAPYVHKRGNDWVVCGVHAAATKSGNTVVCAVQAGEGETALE

B1: edans-…-dabcyl (peptide)
peptide: edans-EPDFHLQGPEDLAK-dabcyl
As to B1, the Km of cleavage of the fluorogenic substrate (FRET protease assay) in assay [1] was found to be 790 µM; in assay [2], 545 µM.

B2: edans-DFHLQGP-dabcyl (peptide)
peptide: edans-DFHLQGP-dabcyl
In the case of B2, the Km of cleavage of the fluorogenic substrate (FRET protease assay) in assay [1] is 272 µM; in assay [2], 160 µM.
